Values joined by “and” are separate entries in the source; they are usually repeats but may differ in a detail not shown here. Identical values can stand only once.
What was measured:
CXCL1-Fc fusion protein = CXCL1-Fc fusion protein (UniProt P09341); assay: SDS-PAGE under reducing and non-reducing conditions; purified proteins separated under reducing and non-reducing conditions, Coomassie Blue staining
[1] = biological target: CXCR2 on THP-1 cells (human (endogenous in THP-1)) (UniProt P25025); assay: flow cytometry on cells; THP-1 cells incubated on ice with purified proteins for 30 min; bound protein detected with a fluorophore-conjugated anti-His tag antibody; FACS buffer (PBS, 1% FBS, 150 μM CaCl2); Fc receptors blocked with Human SeroBlock; single dose and a range of concentrations
CXCR2 on THP-1 cells = CXCR2 on THP-1 cells (UniProt P25025); assay: flow cytometry on cells; conditions: THP-1 cells (CXCR2+), FITC-conjugated anti-6X His antibody
[2] = biological target: CXCR2 on THP-1 cells (human (endogenous in THP-1)) (UniProt P25025)
CXCL5-Fc fusion protein = CXCL5-Fc fusion protein (UniProt P42830); assay: SDS-PAGE under reducing and non-reducing conditions; purified proteins separated under reducing and non-reducing conditions, Coomassie Blue staining
[3] = n = 3, parent: est. 100000, read off a plot

Chain of CXCL1^1-Fc^1 (P09341 whole entry): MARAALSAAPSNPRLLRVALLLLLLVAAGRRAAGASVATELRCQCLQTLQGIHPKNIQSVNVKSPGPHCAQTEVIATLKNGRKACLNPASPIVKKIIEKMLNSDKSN
Chain of CXCL1^1-Fc^2 (P09341 whole entry, looked up, tested part not stated): as the sequence (P09341 whole entry) above

## CXCL1-Fc fusion protein (from UniProt P09341 35-107)
CXCL1-Fc fusion protein
  stoichiometry N: 2
[1]
  fold higher mean fluorescence intensity per cell than CXCL1^1-Fc^2 or CXCL1^1-Fc^1: 3 fold and 4 fold

## CXCL1-Fc fusion protein (from UniProt P09341) CXCL1-Fc chain:T366Y; Fc chain:Y407T
CXCR2 on THP-1 cells; [3]
  response: 19000 MFI
CXCR2 on THP-1 cells; parent: 99.9
  response: 98.5%

## CXCL1-Fc fusion protein (from UniProt P09341) T366Y
CXCR2 on THP-1 cells; [3]
  response: 22000 MFI
CXCR2 on THP-1 cells; parent: 99.9
  response: 97.9%

## CXCL1^1-Fc^2 (from UniProt P09341 35-107) (Fc fusion)
[2]
  IC50 of inhibition of THP-1 cell migration toward PDAC conditioned medium (Boyden chamber): 28 nM

## CXCL1^1-Fc^1 (from UniProt P09341 35-107) (Fc fusion)
[2]
  IC50 of inhibition of THP-1 cell migration toward PDAC conditioned medium (Boyden chamber): 211 nM

## CXCL5-Fc fusion protein (from UniProt P42830 37-114)
CXCL5-Fc fusion protein
  stoichiometry N: 2

From paper PMC12108577
